{"source": "the nanobody polyreactivity screen of Harvey et al. (2022)", "data": [{"assay": "yeast display, Sf9 membrane polyspecificity reagent, FACS + sequencing; frameworks hold sequencing errors", "in_short": "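After 36–48 hours of galactose induction, yeast (Saccharomyces cerevisiae BJ5465) displaying a synthetic nanobody library were stained at 4 °C for 1 hour with 10% biotinylated, detergent-solubilized Sf9 membrane reagent. Streptavidin microbeads enriched the stained cells before FACS sorting into low and high (top ~1%) gates on anti-HA and streptavidin fluorescence. Each clone's polyreactivity label reflects its gate of origin.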", "values": [{"sequence": "QVQLEESGGGLVQAGGILRLSCAASGSTFVNNAMGWYRQAPGKERELVAAITSGSRTKYADSVKGRFTMSLDNAKYTVYFQMNSLQPEDTAVYYWNTMRVGWGQGTQVTVSS", "polyreactivity (PSR sort gate)": "high polyreactivity"}, {"sequence": "QVQLEESGGGLVQAGGRLRLSCAASGRIFAVNAMGWYRQAPGKERELVASITSRGGSTYYADSVYGRFTISRDNAKNTVYLQMPSLKPEDTAVDYCASPYYSLTTNDYDYSGQGTQVTVSS", "polyreactivity (PSR sort gate)": "high polyreactivity"}, {"sequence": "QVQLEESGGGLVQAGGRLRLSCAASGSNTRTYAMGWYRQAHGKERELVAAISSSVCRTYYADSVKGRFTISRDNEKNTVYLQMNSLKPEDTAVYYCNSRTYSYRGYNYWGQGTQVTVSS", "polyreactivity (PSR sort gate)": "high polyreactivity"}, {"sequence": "QVQLEESGGGLVQAGGRLRLSCAASGSTFRNYAMGWNITAAGKERELVAAISTNGGRTFYADSVKGRFTISRDNAKNTVYLQMNSLKPEDNAVYYCAAEYGLYAPGYYYWGQGTQVTVSS", "polyreactivity (PSR sort gate)": "low polyreactivity"}, {"sequence": "QVQLEESGGGLVQAGGRLRLSCAASGSTYSEYAMGWSRKAPGKQRELVAAINWSGGSTYYADSVKGRFTISRDNAKNTVYLQMNSLKPEDTAVYYCNKVFRHHWYPAYNSWGQGTQVTVSS", "polyreactivity (PSR sort gate)": "low polyreactivity"}, {"sequence": "QVQLEESGGGLVQAGGSHRLSCAASGSIIYPYTMGWYRQAPRKERELVAAISGGGRTYYADSVKGRFTISRDNAKNTVYLQMNSLIPEDTAVYYCAARRGYPSGYEYWGQGTQVSVSS", "polyreactivity (PSR sort gate)": "high polyreactivity"}, {"sequence": "QVQLEESGGGLVQAGGSIRLSCAASGFIFYYNAMGWYRQAPGKERELVASIRSGGSTNYADSVKGRFTISRDNAKNTVYLQMNSLKPEDTAVYYCAADISRWSHRSKEMYYWGQGTQVTVSS", "polyreactivity (PSR sort gate)": "low polyreactivity"}, {"sequence": "QVQLEESGGGLVQAGGSLPLSCAASGVIFGYYAMGWYIQAPGKERELVAAISKSGGSTYYADSVKARFTISRDNAKNTVYVQMNSLIPEDTAVYDCNADPRTASDQLEFDYWGQGTQVNVSS", "polyreactivity (PSR sort gate)": "low polyreactivity"}, {"sequence": "QVQLEESGGGLVQAGGSLRIRCAASGSTFVGYAMGWYRQAPGKERELVAAITSSGGRTYYADSVKGRFTISRDNAKNTVYLQMNSLKPEDTAVYYCAAPRARIGGSYDYWGQGTQVTGSS", "polyreactivity (PSR sort gate)": "high polyreactivity"}, {"sequence": "QVQLEESGGGLVQAGGSLRLICAASGRIFDYYTMGWYRQAPGKERELVAAISSSGGSTYYADSVKGRFTISRDNAKNTVYLQMNSLKPEDPAVYYCNASVINEMNYWGQGTQVTVSS", "polyreactivity (PSR sort gate)": "low polyreactivity"}, {"sequence": "QVQLEESGGGLVQAGGSLRLICAASGRIFWLNAMGWYRQAPGKEREFVASITYGSDSTYYADSVKGRFTISRDNAKNTVYLQMNSLKPEDTAVYYCNREGWHYGPYVYWGQGTQVTVSS", "polyreactivity (PSR sort gate)": "low polyreactivity"}, {"sequence": "QVQLEESGGGLVQAGGSLRLICAASGRNFGYYPMGWYRQAPGKERELVAAISGSGGTTYYADSVKGRFTISRDIAKNTVYLQMISLKPEDTAVYYCNAGFGYYWHRGFFQYDYWGQGTQVTVSS", "polyreactivity (PSR sort gate)": "high polyreactivity"}, {"sequence": "QVQLEESGGGLVQAGGSLRLICAASGSIFYYKYAMGGYRQAPGKERELVAAITSTGGTTYYADSVKGRFTISRDNAKNTVYLQMNSLKPEDTAVYYCAALAPYIGGVDYDYWGQGTQVTVSS", "polyreactivity (PSR sort gate)": "low polyreactivity"}, {"sequence": "QVQLEESGGGLVQAGGSLRLICAAYGIIFYIYTMGWYRQEPVKERELVAAINPGGSRYYADSVKGRFTISRDNAKNTVYLQMNSLKPEDTAVYYCNKLSYGRSGYWGQGTEVTVSS", "polyreactivity (PSR sort gate)": "high polyreactivity"}, {"sequence": "QVQLEESGGGLVQAGGSLRLRCAASGRTFHAYVMGWYRQAPGKERELVADISSGGDTYADSVKGRFTISRDNAKNTVYLQMNSLKPEDSAVYYCAVDLIQDESGYWGQGTQVNVSS", "polyreactivity (PSR sort gate)": "low polyreactivity"}, {"sequence": "QVQLEESGGGLVQAGGSLRLSCAASGFIFGYYAMGSYRQAPGKERELVAAISKSGGRTRYADSVKGRFTISRDNAKNTVYLQMNSLKPVDTAVYYCATYDPARSTQGYDYWGQGTQVTVSS", "polyreactivity (PSR sort gate)": "high polyreactivity"}, {"sequence": "QVQLEESGGGLVQAGGSLRLSCAASGFIIHLYGMGWYRQAPGKERELVAAISSGGRTYYADSVKGRFTISRDNAKNTVDLQMNSMIPEVTAVSYSAVFVAYLYSYYYWGQGTQVTVSS", "polyreactivity (PSR sort gate)": "low polyreactivity"}, {"sequence": "QVQLEESGGGLVQAGGSLRLSCAASGFIVYYYAMGWYRQAPGKERELVAAISSGDRTYYADSVKGRFTISRDNAKNTVYLQMNSLKREDTAVYYCNALSRNTQLYDYWGQGTQVTVSS", "polyreactivity (PSR sort gate)": "high polyreactivity"}, {"sequence": "QVQLEESGGGLVQAGGSLRLSCAASGFTFDANAMGWYRQAPGKERELVAAISSGGGSTYYADSVKGRFTISRDNPKNTVYLQMNSLKPEDTAVYYCAKVYLVYKSYPYDYWGLGTQVTVSS", "polyreactivity (PSR sort gate)": "high polyreactivity"}, {"sequence": "QVQLEESGGGLVQAGGSLRLSCAASGFTFDVYAMGWYRQAPGKERELVAAIDSGGSTNYADSVKGRFTISRDNAKNTVYLQMNSLKPEDTAVYYCAVRYWKTLSHFSYDYWGQGTQVTVSS", "polyreactivity (PSR sort gate)": "low polyreactivity"}, {"sequence": "QVQLEESGGGLVQAGGSLRLSCAASGFTLPANGMGWYRQAPGKERELVAAISFIAGSTYYADSVKGRFTISRDNAKNTVYLQMNSLKPEDTAVYYCSTQFPPSTIYDYWGQGTQVTVSS", "polyreactivity (PSR sort gate)": "low polyreactivity"}, {"sequence": "QVQLEESGGGLVQAGGSLRLSCAASGGILDTYAMGWYRPAPWKETELVAANTSGCNTNYADSVKGRFTISRDNAKNTVYLQMISLKQEDTEVYYCNLVTWYYVFRPWEYDYCGQGTQVTVSS", "polyreactivity (PSR sort gate)": "low polyreactivity"}, {"sequence": "QVQLEESGGGLVQAGGSLRLSCAASGGNFPVNAIGWYRQAPGKERELVATITYDGGNTYYADSVKGRFTISRDNAKNTVYLQMNSLKPEDTAVYYCAARTPQRSEWTKYGYWGQGTLVTVSS", "polyreactivity (PSR sort gate)": "low polyreactivity"}, {"sequence": "QVQLEESGGGLVQAGGSLRLSCAASGGTFDYYAMGWYRQAPRKERELVAVINWSGGRTYYADSVKGRFTISRDNAKNTVYLQMNSLKPEDTAVYYCAAQRPPGQTWNRDYWGQGTQVTVSS", "polyreactivity (PSR sort gate)": "high polyreactivity"}, {"sequence": "QVQLEESGGGLVQAGGSLRLSCAASGIIFATYAMGWYRQAPGKDRELVAAISSGGRTYYADSVKGRFTISRDNAKNTVYLQMNSLKPEDTAVYYCAAKSGGRSSLYNYWGQGTQVNVSS", "polyreactivity (PSR sort gate)": "high polyreactivity"}, {"sequence": "QVQLEESGGGLVQAGGSLRLSCAASGIIFITYAMGWYRQAPGKEREMVAAITNSGGGTYYADSVKGRFTISRDNAKNTVYLQLNSLKPEDTAVYYCAARKTAYGYRYDYWGQGTQVTVSS", "polyreactivity (PSR sort gate)": "high polyreactivity"}, {"sequence": "QVQLEESGGGLVQAGGSLRLSCAASGIIFPRNAMGWYRQAPGKERELVAAITNTGSTKYADSVKGRFTISRDNAKNSVYLHMNSLKPEDTAVYYCAKELGSVPSPSLYDYWGQGTQVTVSS", "polyreactivity (PSR sort gate)": "low polyreactivity"}, {"sequence": "QVQLEESGGGLVQAGGSLRLSCAASGIIFTVYAMGWYRQATGTERELVAAITSSGGRTYYADSVKGRFTISRDNAKNTVYLQMNSLKPEDTAVYYCAARLPGYVRKYDYWGQGTQVTVSS", "polyreactivity (PSR sort gate)": "high polyreactivity"}, {"sequence": "QVQLEESGGGLVQAGGSLRLSCAASGIIFWYNAMGGSRQAPGKETELVAAISRGGGNTYADSVKGRFTISRDNAKNTVYLQMKSLKEVDTAVYYCAAKRSGYRFNTRWFRLPKYDYWGQGNQVTVSS", "polyreactivity (PSR sort gate)": "low polyreactivity"}, {"sequence": "QVQLEESGGGLVQAGGSLRLSCAASGITLGYYAMGWYRPAPGKERELVAAITWSGTSTYYADSVKGRFTISRDNAKNTVYLQMNSLKPEDTADYYCAAGFISQYQERGYWGQGTQVTVSS", "polyreactivity (PSR sort gate)": "low polyreactivity"}, {"sequence": "QVQLEESGGGLVQAGGSLRLSCAASGLIFGHNAMGWYRQAPGKERELVAAISRSGTSTYYADSVKGRFTISRDNAKNTVYLQMNSLKPEDNAVYYCAAENYYTAGGSGPIYRRVYWGQGTQVTVSS", "polyreactivity (PSR sort gate)": "low polyreactivity"}, {"sequence": "QVQLEESGGGLVQAGGSLRLSCAASGLIFIVYAMGWYRQAPGKERELVAAISFSGGSTYYADSVKGRFTISRDNAKNTVYLQMNSLKPEDTAVYYCAARARYTRRGRNYDYWGQGTQVTVSS", "polyreactivity (PSR sort gate)": "high polyreactivity"}]}]}
